Data published in paper PMC10450677, “CD44 acts as a coreceptor for cell-specific enhancement of signaling and regulatory T cell induction by TGM1, a parasite TGF-β mimic” (Proceedings of the National Academy of Sciences of the …, 2023).

T1: TGM1 full-length (D1/2/3/4/5), aa 19-422 (Heligmosomoides polygyrus, UniProt A0A2D1LW19 19-422, 125I (chloramine T) in the cross-linking assays; biotin (EZ-Link Sulfo-NHS-LC-Biotin) in the pull-downs; Alexa Fluor 488 in flow cytometry; no label named for ITC)
T1 construct: TGF-β mimic TGM1, Heligmosomoides polygyrus, GenBank MG099712 (422-aa protein), aa 19-422, omitting the parasite-encoded signal peptide; also called TGM1-FL; FL; source: HEK293 (pSecTag2A), purified (HiTrap nickel chelating, Superdex 75 as needed)
T1 sequence: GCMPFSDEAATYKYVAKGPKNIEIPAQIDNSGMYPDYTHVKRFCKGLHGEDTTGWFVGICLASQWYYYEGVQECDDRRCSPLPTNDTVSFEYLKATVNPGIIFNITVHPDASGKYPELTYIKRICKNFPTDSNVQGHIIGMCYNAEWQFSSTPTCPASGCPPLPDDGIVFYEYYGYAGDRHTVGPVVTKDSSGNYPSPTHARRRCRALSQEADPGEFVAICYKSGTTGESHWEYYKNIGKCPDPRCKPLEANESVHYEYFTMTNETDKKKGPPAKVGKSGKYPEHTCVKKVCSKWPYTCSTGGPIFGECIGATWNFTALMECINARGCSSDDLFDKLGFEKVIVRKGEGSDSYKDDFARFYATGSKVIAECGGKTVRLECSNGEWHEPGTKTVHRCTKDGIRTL

T2: TGM1 D4/5 (domains 4 and 5) (Heligmosomoides polygyrus, UniProt A0A2D1LW19 1-422, 125I (chloramine T) in the cross-linking assays; biotin (EZ-Link Sulfo-NHS-LC-Biotin) in the pull-downs; Alexa Fluor 488 in flow cytometry; no label named for ITC)
T2 construct: TGM1, Heligmosomoides polygyrus, GenBank MG099712, domains 4 and 5; D1/2/3 ends at aa 262 and the protein at aa 422; also called TGM1-D4/5-biotin; source: recombinant, purified
T2 sequence: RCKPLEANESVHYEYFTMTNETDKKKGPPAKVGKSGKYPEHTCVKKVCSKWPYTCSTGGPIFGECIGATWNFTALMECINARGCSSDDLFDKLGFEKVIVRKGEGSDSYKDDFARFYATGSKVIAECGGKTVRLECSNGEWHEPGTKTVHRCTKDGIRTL

B1: mouse CD44 hyaluronan binding domain, aa 23-174 (domain or fragment, UniProt P15379 23-174, looked up)
chain: QIDLNVTCRYAGVFHVEKNGRYSISRTEAADLCQAFNSTLPTMDQMKLALSKGFETCRYGFIEGNVVIPRIHPNAICAANHTGVYILVTSNTSHYDTYCFNASAPPEEDCTSVTDLPNSFDGPVTITIVNRDGTRYSKKGEYRTHQEDIDAS
notes: also called mCD44; murine CD44; source: HEK293 (pcDNA3.1+), purified (HiTrap nickel chelating, Superdex 75 as needed)
B2: human CD44 hyaluronan binding domain, aa 21-169 (domain or fragment, UniProt P16070 21-169, looked up)
chain: QIDLNITCRFAGVFHVEKNGRYSISRTEAADLCKAFNSTLPTMAQMEKALSIGFETCRYGFIEGHVVIPRIHPNSICAANNTGVYILTSNTSQYDTYCFNASAPPEEDCTSVTDLPNAFDGPITITIVNRDGTRYVQKGEYRTNPEDIY
notes: also called hCD44; source: HEK293 (pcDNA3.1+), purified (HiTrap nickel chelating, Superdex 75 as needed)

Tests used:
[1] = biological target: T1, TGM1 full-length (D1/2/3/4/5), aa 19-422; test: ITC; CD44 in the syringe, TGM1 protein in the cell; 25 mM sodium phosphate, 50 mM NaCl, pH 6.0, 35 °C; 1:1 binding model, global fit of two replicates; conditions: both partners purified
[2] = biological target: T2, TGM1 D4/5 (domains 4 and 5); test: as above; conditions: both partners purified

| Binder | Kd [1] [nM] | dH [1] [kcal/mol] | stoichiometry N [1] | Kd [2] [nM] | dH [2] [kcal/mol] | stoichiometry N [2] |
| --- | --- | --- | --- | --- | --- | --- |
| B1 | 64 | -17.5 | 0.8 | 62 | -19.4 | 1.4 |
| B2 | 92 | -10.3 | 1.2 | 140 | -9.6 | 1.2 |
